From patent US20160264669A1 (ARGEN X N V, published 2016)
Positions count from the first letter of the chain named. In names and notes the source's numbering stands.

T1: murine CD16-2 (Sino Biological Inc., 50036-M27H-B) (murine, UniProt A0A0B4J1G0 21-203, Probably biotinylated on the vendor's tag (catalogue suffix -B); not carried in the letters)
T1 construct: Purchased reagent; Biotinylation is only implied by 'a similar experimental procedure as described above'; also called mCD16-2
T1 sequence: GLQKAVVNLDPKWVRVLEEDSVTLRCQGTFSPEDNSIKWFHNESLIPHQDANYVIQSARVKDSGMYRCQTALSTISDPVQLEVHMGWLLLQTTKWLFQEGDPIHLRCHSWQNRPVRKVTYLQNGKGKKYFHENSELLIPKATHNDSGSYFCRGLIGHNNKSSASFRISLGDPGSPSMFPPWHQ

B1: Fc-Abdeg-POT (other)
chain: DKTHTCPPCPAPELLGGPSVFLFPPKPKDTLYITREPEVTCVVVDVSHEDPEVKFNWYVDGVEVHNAKTKPREEQYNSTYRVVSVLTVLHQDWLNGKEYKCKVSNKALPAPIEKTISKAKGQPREPQVYTLPPSRDELTKNQVSLTCLVKGFYPSDIAVEWESNGQPENNYKTTPPVLDSDGSFFLYSKLTVDKSRWQQGNVFSCSVMHEALKFHYTQKSLSLSPGK
modifications: afucosylated (defucosylated) N-linked glycan
notes: also called afucosylated form of Fc-Abdeg; afucosylated variant
B2: Fc-Abdeg (other)
chain: B1 chain
notes: Isolated variant human IgG Fc region with no variable region; Produced in CHO cells, fucosylated; also called wild-type Fc-Abdeg; fucosylated Fc-Abdeg
B3: Fc-Abdeg-S239D/I332E (other)
chain: B1 chain with S19D, I112E
notes: also called Fc-Abdeg-S239D/I332E variant

Columns and labels:
[1] = biological target: T2, biotinylated hCD16a (Sino Biological Inc., 10389-H27H1-B) (human, UniProt P08637 17-208, biotinylated (site not stated)); assay: ELISA; biotinylated hCD16a captured on neutravidin plate; reference is fucosylated Fc-Abdeg
T2 construct: Purchased reagent; also called human CD16a
Method: (§1) Specifically, a Maxisorp plate was coated with 100 ng/well of Neutravidin Biotin-binding Protein (ThermoScientific, 31000) and incubated overnight at 4° C. The following day, the plate was blocked with PBS+1% casein for 2 hours at room temperature. […] Binding to hCD16a was detected using an HRP-conjugated polyclonal goat anti-human Fc antibody (Jackson ImmunoResearch, 109-035-008) (incubation 1 hour at RT, dilution 1/50,000 in PBS+0.1% casein), followed by addition of 100 μl room temperature-equilibrated TMB (SDT-reagents #s TMB). Plates were incubated for 10 minutes prior to addition of 100 μl 0.5N H₂SO₄ and OD450 nm measurement. EC50 values were determined using GraphPad Prism software.

[2] = biological target: T2, biotinylated hCD16a (Sino Biological …); assay: ELISA; biotinylated hCD16a captured on neutravidin plate, anti-human Fc-HRP detection
Method: as §1

[3] = biological target: T1, murine CD16-2 (Sino Biological Inc., …); assay: ELISA on murine CD16-2, procedure similar to the hCD16a ELISA
Method: as §1
Using a similar experimental procedure as described above, the binding affinity for murine CD16-2 (Sino Biological Inc., 50036-M27H-B) was determined.

T2 sequence (P08637 17-208 limits assumed): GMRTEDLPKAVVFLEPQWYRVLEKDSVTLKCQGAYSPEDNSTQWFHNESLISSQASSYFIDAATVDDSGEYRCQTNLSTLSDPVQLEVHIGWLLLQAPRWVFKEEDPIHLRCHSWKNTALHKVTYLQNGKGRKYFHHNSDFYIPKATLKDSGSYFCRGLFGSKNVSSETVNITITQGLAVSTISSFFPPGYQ

Binder	fold increase in affinity vs Fc-Abdeg [1] [fold]	EC50 [2] [nM]	EC50 [3] [nM]
B1	> 30	13	11
B2			> 100
B3		6	
